Reference: paper PMC9569552 (International Journal of Molecular Sciences, 2022)

Molecular target: T1, antigen c-MET (Homo sapiens (assumed), UniProt P08581)
T1 construct: c-MET used as antigen in the ForteBio Octet experiment; the construct of the antigen is unknown; also called mesenchymal-epithelial transition protein
Experiment: BLI; ForteBio Octet; who was immobilised and the conditions not given; KD from ForteBio Data Analysis Software 8.0; values compared 'if normalized to the same number of epitope of c-MET'

T1 sequence (P08581 25-1390): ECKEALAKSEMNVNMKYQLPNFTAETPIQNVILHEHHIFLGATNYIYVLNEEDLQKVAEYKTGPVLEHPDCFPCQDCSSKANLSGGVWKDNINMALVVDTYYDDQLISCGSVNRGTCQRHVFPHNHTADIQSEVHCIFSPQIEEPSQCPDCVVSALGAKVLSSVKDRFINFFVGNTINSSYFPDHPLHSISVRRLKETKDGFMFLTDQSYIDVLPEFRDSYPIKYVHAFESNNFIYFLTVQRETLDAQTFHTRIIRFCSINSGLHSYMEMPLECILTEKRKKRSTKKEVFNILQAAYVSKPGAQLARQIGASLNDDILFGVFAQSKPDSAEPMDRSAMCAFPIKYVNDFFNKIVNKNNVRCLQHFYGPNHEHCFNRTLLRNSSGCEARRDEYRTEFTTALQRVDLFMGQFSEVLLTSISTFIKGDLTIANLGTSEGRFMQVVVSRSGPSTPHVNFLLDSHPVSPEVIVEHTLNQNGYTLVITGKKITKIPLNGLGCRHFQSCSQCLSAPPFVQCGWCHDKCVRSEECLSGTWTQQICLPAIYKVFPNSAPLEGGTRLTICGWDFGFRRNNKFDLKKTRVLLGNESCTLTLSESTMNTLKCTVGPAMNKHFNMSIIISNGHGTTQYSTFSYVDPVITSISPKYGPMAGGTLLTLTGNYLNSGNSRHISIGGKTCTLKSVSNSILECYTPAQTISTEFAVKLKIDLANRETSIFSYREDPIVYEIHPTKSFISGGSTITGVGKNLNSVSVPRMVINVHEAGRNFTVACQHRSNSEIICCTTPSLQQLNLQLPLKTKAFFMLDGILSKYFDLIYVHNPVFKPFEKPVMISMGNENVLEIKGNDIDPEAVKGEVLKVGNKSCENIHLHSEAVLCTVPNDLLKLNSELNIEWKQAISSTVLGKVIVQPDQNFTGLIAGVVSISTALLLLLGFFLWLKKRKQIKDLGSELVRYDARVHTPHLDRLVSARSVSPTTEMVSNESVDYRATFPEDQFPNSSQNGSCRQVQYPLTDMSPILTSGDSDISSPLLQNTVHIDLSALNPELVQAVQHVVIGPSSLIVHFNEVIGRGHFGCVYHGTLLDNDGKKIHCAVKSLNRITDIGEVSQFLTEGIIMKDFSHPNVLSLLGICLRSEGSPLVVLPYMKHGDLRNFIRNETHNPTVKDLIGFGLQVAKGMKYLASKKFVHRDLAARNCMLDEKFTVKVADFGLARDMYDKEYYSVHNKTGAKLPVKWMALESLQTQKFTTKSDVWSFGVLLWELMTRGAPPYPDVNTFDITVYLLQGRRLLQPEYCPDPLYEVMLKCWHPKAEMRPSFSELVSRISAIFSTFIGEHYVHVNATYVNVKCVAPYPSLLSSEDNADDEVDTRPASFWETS

B1: Emibetuzumab-IgG4 (Emi-IgG4) antibody (antibody, V domains shown)
VH: QVQLVQSGAEVKKPGASVKVSCKASGYTFTDYYMHWVRQAPGQGLEWMGRVNPNRRGTTYNQKFEGRVTMTTDTSTSTAYMELRSLRSDDTAVYYCARANWLDYWGQGTTVTVSS
VL: DIQMTQSPSSLSASVGDRVTITCSVSSSVSSIYLHWYQQKPGKAPKLLIYSTSNLASGVPSRFSGSGSGTDFTLTISSLQPEDFATYYCQVYSGYPLTFGGGTKVEIK
notes: heavy chain of emibetuzumab, IgG4; disclosed in WO 2010/059654; kappa light chain of emibetuzumab; IgG4; also called emibetuzumab analog; source: 293F cells, transiently co-transfected, purified from the supernatant (Protein A); copies: 2 + 2
Kd: 0.65 nM
